Results as given in article PMC10284912, “Molecular choreography of primer synthesis by the eukaryotic Pol α-primase” (Nature Communications, 2023).

T1: S. cerevisiae DNA polymerase catalytic subunit Pol1 (S. cerevisiae, UniProt P13382 1-1468)
T1 construct: DNA polymerase alpha catalytic subunit Pol1, S. cerevisiae, aa 1-1468 (Pol1-NTD aa 1-348, Pol1-core aa 349-1259, Pol1-CTD aa 1260-1468); intact complex without truncations; also called DNA polymerase 1; p180
T1 sequence (looked up): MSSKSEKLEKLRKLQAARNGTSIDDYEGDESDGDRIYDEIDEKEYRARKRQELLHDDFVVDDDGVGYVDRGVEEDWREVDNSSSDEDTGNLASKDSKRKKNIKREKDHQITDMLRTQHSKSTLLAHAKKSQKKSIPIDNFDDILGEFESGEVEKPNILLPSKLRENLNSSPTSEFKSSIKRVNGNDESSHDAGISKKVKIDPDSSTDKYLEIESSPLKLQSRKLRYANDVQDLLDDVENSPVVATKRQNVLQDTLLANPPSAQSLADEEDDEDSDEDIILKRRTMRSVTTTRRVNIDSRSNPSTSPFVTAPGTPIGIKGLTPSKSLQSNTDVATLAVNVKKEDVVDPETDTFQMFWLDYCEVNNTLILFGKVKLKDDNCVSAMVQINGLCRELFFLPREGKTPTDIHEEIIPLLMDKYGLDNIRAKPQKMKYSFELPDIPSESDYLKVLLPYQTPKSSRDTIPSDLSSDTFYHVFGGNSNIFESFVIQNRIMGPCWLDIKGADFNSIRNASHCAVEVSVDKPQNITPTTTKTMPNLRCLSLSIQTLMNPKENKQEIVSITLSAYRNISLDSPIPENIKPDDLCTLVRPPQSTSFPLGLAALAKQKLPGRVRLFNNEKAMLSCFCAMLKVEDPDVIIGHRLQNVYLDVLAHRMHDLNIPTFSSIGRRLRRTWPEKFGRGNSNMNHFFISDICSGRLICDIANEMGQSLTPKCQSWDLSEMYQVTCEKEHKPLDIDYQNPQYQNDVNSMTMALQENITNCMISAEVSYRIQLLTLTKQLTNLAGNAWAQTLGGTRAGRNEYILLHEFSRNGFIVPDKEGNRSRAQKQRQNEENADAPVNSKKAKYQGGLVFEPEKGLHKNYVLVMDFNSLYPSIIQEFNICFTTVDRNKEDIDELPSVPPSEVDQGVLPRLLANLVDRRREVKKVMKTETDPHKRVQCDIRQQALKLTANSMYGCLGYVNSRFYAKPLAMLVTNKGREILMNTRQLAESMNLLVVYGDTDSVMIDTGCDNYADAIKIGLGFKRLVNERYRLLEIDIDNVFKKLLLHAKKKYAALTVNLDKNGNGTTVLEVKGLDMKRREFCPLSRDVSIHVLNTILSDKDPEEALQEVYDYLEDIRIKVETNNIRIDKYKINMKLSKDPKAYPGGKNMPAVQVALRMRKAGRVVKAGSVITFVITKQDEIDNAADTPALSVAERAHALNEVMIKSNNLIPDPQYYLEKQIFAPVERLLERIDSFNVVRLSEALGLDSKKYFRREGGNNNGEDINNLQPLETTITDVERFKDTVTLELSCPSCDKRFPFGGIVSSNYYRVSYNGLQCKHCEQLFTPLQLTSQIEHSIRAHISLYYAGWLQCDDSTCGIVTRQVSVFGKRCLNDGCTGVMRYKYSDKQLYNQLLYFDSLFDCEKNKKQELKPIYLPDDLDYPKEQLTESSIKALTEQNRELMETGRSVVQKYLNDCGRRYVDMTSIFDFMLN

B1: S. cerevisiae regulatory subunit primase 2 (Pri2) (natural protein, UniProt P20457 1-528, looked up)
chain: MFRQSKRRIASRKNFSSYDDIVKSELDVGNTNAANQIILSSSSSEEEKKLYARLYESKLSFYDLPPQGEITLEQFEIWAIDRLKILLEIESCLSRNKSIKEIETIIKPQFQKLLPFNTESLEDRKKDYYSHFILRLCFCRSKELREKFVRAETFLFKIRFNMLTSTDQTKFVQSLDLPLLQFISNEEKAELSHQLYQTVSASLQFQLNLNEEHQRKQYFQQEKFIKLPFENVIELVGNRLVFLKDGYAYLPQFQQLNLLSNEFASKLNQELIKTYQYLPRLNEDDRLLPILNHLSSGYTIADFNQQKANQFSENVDDEINAQSVWSEEISSNYPLCIKNLMEGLKKNHHLRYYGRQQLSLFLKGIGLSADEALKFWSEAFTRNGNMTMEKFNKEYRYSFRHNYGLEGNRINYKPWDCHTILSKPRPGRGDYHGCPFRDWSHERLSAELRSMKLTQAQIISVLDSCQKGEYTIACTKVFEMTHNSASADLEIGEQTHIAHPNLYFERSRQLQKKQQKLEKEKLFNNGNH
notes: DNA primase large (regulatory) subunit Pri2, S. cerevisiae (Pri2-NTD, 20-residue linker, Pri2-CTD with a 4Fe-4S cluster); intact complex without truncations; also called p58; PriL

Legend:
[1] = biological target: T1, S. cerevisiae DNA polymerase catalytic …; test: cryo-EM structure; purified yeast Pol α-primase alone (apo state, conformers I and II, 3.7 and 3.8 Å); ~1 mg/ml; 50 mM HEPES pH 7.5, 50 mM KGlu, 200 mM KAcetate, 1 mM DTT, 4 mM MgCl2; details: both partners purified
[2] = biological target: B1; test: as above; details: both partners purified

binding result [1] | binding result [2] | Binder
binds |  | S. cerevisiae polymerase accessory subunit Pol12 (natural protein, UniProt P38121 1-705, looked up, intact complex without truncations; also called p70; B-subunit) MSGSIDVITHFGPDADKPEIITALENLTKLHALSVEDLYIKWEQFSNQRRQTHTDLTSKNIDEFKQFLQLQMEKRANQISSSSKVNTSTKKPVIKKSLNSSPLFGLSIPKTPTLKKRKLHGPFSLSDSKQTYNVGSEAETNEKGNSSLKLEFTPGMAEDAVGDSAPLSHAKSSDAKTPGSSTFQTPTTNTPTTSRQNVPAGEILDSLNPENIEISSGNPNVGLLSTEEPSYNQVKVEPFYDAKKYKFRTMRQNLQEASDVLDDQIESFTKIIQNHYKLSPNDFADPTIQSQSEIYAVGRIVPDSPTYDKFLNPESLSLETSRMGGVGRRVRLDLSQVNELSFFLGQIVAFKGKNANGDYFTVNSILPLPYPNSPVSTSQELQEFQANLEGSSLKVIVTCGPYFANDNFSLELLQEFIDSINNEVKPHVLIMFGPFIDITHPLIASGKLPNFPQFKTQPKTLDELFLKLFTPILKTISPHIQTVLIPSTKDAISNHAAYPQASLIRKALQLPKRNFKCMANPSSFQINEIYFGCSNVDTFKDLKEVIKGGTTSSRYRLDRVSEHILQQRRYYPIFPGSIRTRIKPKDVSTKKETNDMESKEEKVYEHISGADLDVSYLGLTEFVGGFSPDIMIIPSELQHFARVVQNVVVINPGRFIRATGNRGSYAQITVQCPDLEDGKLTLVEGEEPVYLHNVWKRARVDLIAS
binds |  | B1
binds | binds | S. cerevisiae catalytic primase 1 (Pri1) (natural protein, UniProt P10363 1-409, looked up, DNA primase small (catalytic) subunit Pri1, S. cerevisiae; intact complex without truncations; also called p49; PriS) MTNSVKTNGPSSSDMEYYYKSLYPFKHIFNWLNHSPKPSRDMINREFAMAFRSGAYKRYNSFNSVQDFKAQIEKANPDRFEIGAIYNKPPRERDTLLKSELKALEKELVFDIDMDDYDAFRTCCSGAQVCSKCWKFISLAMKITNTALREDFGYKDFIWVFSGRRGAHCWVSDKRARALTDVQRRNVLDYVNVIRDRNTDKRLALKRPYHPHLARSLEQLKPFFVSIMLEEQNPWEDDQHAIQTLLPALYDKQLIDSLKKYWLDNPRRSSKEKWNDIDQIATSLFKGPKQDSHIIKLRECKEDLVLMTLYPKLDVEVTKQTIHLLKAPFCIHPATGNVCVPIDESFAPEKAPKLIDLQTEMEKNNDVSLTALQPFINQFQAYVSSLLKNELGSVKREREDDDEPASLDF
